Measurements: US20090239794A1, “HCV F PROTEIN AND USES THEREOF” (priority 2004, published 2009)

How the values were obtained:
[1] = target: Fmut8Δ11 protein (recombinant ARFP, truncated HCV-1a F protein lacking the first 11 N-terminal amino acids) (HCV-1a) (UniProt P0C045); assay: ELISA, serum 1/400, day 52
[2] = target: Fmut8Δ11 protein (recombinant ARFP, truncated HCV-1a F protein lacking the first 11 N-terminal amino acids) (HCV-1a) (UniProt P0C045); assay: ELISA, serum 1/400, day 29
[3] = target: Fmut8Δ11 protein (recombinant ARFP, truncated HCV-1a F protein lacking the first 11 N-terminal amino acids) (HCV-1a) (UniProt P0C045); assay: ELISA, serum 1/100, day 29
[4] = target: Fmut8Δ11 protein (recombinant ARFP, truncated HCV-1a F protein lacking the first 11 N-terminal amino acids) (HCV-1a) (UniProt P0C045); assay: ELISA, serum 1/400, day 14
[5] = target: Fmut8Δ11 protein (recombinant ARFP, truncated HCV-1a F protein lacking the first 11 N-terminal amino acids) (HCV-1a) (UniProt P0C045); assay: ELISA, serum 1/200, day 29
[6] = target: Fmut8Δ11 protein (recombinant ARFP, truncated HCV-1a F protein lacking the first 11 N-terminal amino acids) (HCV-1a) (UniProt P0C045); assay: ELISA, serum 1/800, day 52
[7] = target: Fmut8Δ11 protein (recombinant ARFP, truncated HCV-1a F protein lacking the first 11 N-terminal amino acids) (HCV-1a) (UniProt P0C045); assay: ELISA, serum 1/50, day 29
[8] = target: Fmut8Δ11 protein (recombinant ARFP, truncated HCV-1a F protein lacking the first 11 N-terminal amino acids) (HCV-1a) (UniProt P0C045); assay: ELISA, serum 1/800, day 14
[9] = target: Fmut8Δ11 protein (recombinant ARFP, truncated HCV-1a F protein lacking the first 11 N-terminal amino acids) (HCV-1a) (UniProt P0C045); assay: ELISA, serum 1/200, day 52
[10] = target: Fmut8Δ11 protein (recombinant ARFP, truncated HCV-1a F protein lacking the first 11 N-terminal amino acids) (HCV-1a) (UniProt P0C045); assay: ELISA, serum 1/100, day 52
[11] = target: Fmut8Δ11 protein (recombinant ARFP, truncated HCV-1a F protein lacking the first 11 N-terminal amino acids) (HCV-1a) (UniProt P0C045); assay: ELISA, serum 1/1600, day 29
[12] = target: Fmut8Δ11 protein (recombinant ARFP, truncated HCV-1a F protein lacking the first 11 N-terminal amino acids) (HCV-1a) (UniProt P0C045); assay: ELISA, serum 1/800, day 29
[13] = target: Fmut8Δ11 protein (recombinant ARFP, truncated HCV-1a F protein lacking the first 11 N-terminal amino acids) (HCV-1a) (UniProt P0C045); assay: ELISA, serum 1/200, day 14
[14] = target: Fmut8Δ11 protein (recombinant ARFP, truncated HCV-1a F protein lacking the first 11 N-terminal amino acids) (HCV-1a) (UniProt P0C045); assay: ELISA, serum 1/1600, day 14
[15] = target: Fmut8Δ11 protein (recombinant ARFP, truncated HCV-1a F protein lacking the first 11 N-terminal amino acids) (HCV-1a) (UniProt P0C045); assay: ELISA, serum 1/1600, day 52
[16] = target: Fmut8Δ11 protein (recombinant ARFP, truncated HCV-1a F protein lacking the first 11 N-terminal amino acids) (HCV-1a) (UniProt P0C045); assay: ELISA, serum 1/100, day 14
[17] = target: Fmut8Δ11 protein (recombinant ARFP, truncated HCV-1a F protein lacking the first 11 N-terminal amino acids) (HCV-1a) (UniProt P0C045); assay: ELISA, serum 1/50, day 52
[18] = target: Fmut8Δ11 protein (recombinant ARFP, truncated HCV-1a F protein lacking the first 11 N-terminal amino acids) (HCV-1a) (UniProt P0C045); assay: ELISA, serum 1/50, day 14

Row | Substance | OD410 [1] | OD410 [2] | OD410 [3] | OD410 [4] | OD410 [5] | OD410 [6] | OD410 [7] | OD410 [8] | OD410 [9] | OD410 [10] | OD410 [11] | OD410 [12] | OD410 [13] | OD410 [14] | OD410 [15] | OD410 [16] | OD410 [17] | OD410 [18]
1 | serum of mouse 19, protocol 2, mock immunization (PBS) (antibody) | 0.135 | 0.54 | 0.27 | 0.142 | 0.184 | 0.12 | 0.444 | 0.13 | 0.143 | 0.175 | 0.119 | 0.139 | 0.144 | 0.129 | 0.126 | 0.18 | 0.313 | 0.23
2 | serum of mouse 15, protocol 2, mock immunization (PBS) (antibody) | 0.177 | 0.113 | 0.16 | 0.144 | 0.123 | 0.134 | 0.253 | 0.118 | 0.151 | 0.215 | 0.122 | 0.13 | 0.146 | 0.116 | 0.136 | 0.162 | 0.376 | 0.229
3 | serum of mouse 16, protocol 2, mock immunization (PBS) (antibody) | 0.134 | 0.151 | 0.325 | 0.121 | 0.196 | 0.107 | 0.327 | 0.13 | 0.149 | 0.194 | 0.116 | 0.129 | 0.13 | 0.123 | 0.123 | 0.174 | 0.231 | 0.249
4 | serum of mouse 27, protocol 2, mock immunization (PBS) (antibody) | 0.12 | 0.13 | 0.175 | 0.115 | 0.14 | 0.115 | 0.324 | 0.113 | 0.136 | 0.155 | 0.129 | 0.124 | 0.113 | 0.112 | 0.116 | 0.146 | 0.201 | 0.216
5 | serum of mouse 26, protocol 2, mock immunization (PBS) (antibody) | 0.12 | 0.144 | 0.178 | 0.133 | 0.154 | 0.114 | 0.416 | 0.133 | 0.123 | 0.146 | 0.137 | 0.144 | 0.146 | 0.126 | 0.118 | 0.193 | 0.203 | 0.281
6 | serum of mouse 17, protocol 2, mock immunization (PBS) (antibody) | 0.142 | 0.138 | 0.269 | 0.248 | 0.191 | 0.125 | 0.754 | 0.184 | 0.185 | 0.286 | 0.112 | 0.119 | 0.321 | 0.159 | 0.125 | 0.487 | 0.5 | 0.67
7 | serum of mouse 11, protocol 2, mock immunization (PBS) (antibody) | 0.149 | 0.128 | 0.19 | 0.116 | 0.153 | 0.118 | 0.307 | 0.114 | 0.133 | 0.173 | 0.123 | 0.127 | 0.135 | 0.113 | 0.117 | 0.154 | 0.35 | 0.108
8 | serum of mouse 14, protocol 2, mock immunization (PBS) (antibody) | 0.163 | 0.126 | 0.156 | 0.151 | 0.143 | 0.159 | 0.246 | 0.15 | 0.156 | 0.224 | 0.124 | 0.123 | 0.178 | 0.143 | 0.145 | 0.171 | 0.288 | 0.212
9 | serum of mouse 20, protocol 2, mock immunization (PBS) (antibody) | 0.141 | 0.133 | 0.181 | 0.121 | 0.154 | 0.127 | 0.51 | 0.136 | 0.146 | 0.182 | 0.141 | 0.13 | 0.138 | 0.118 | 0.127 | 0.168 | 0.247 | 0.245
10 | serum of mouse 30, protocol 2, mock immunization (PBS) (antibody) | 0.119 | 0.132 | 0.224 |  | 0.157 | 0.113 | 0.381 |  | 0.128 | 0.148 | 0.129 | 0.126 |  |  | 0.119 |  | 0.226 | 
11 | serum of mouse 18, protocol 2, mock immunization (PBS) (antibody) | 0.12 | 0.134 | 0.217 | 0.127 | 0.166 | 0.114 | 0.356 | 0.126 | 0.135 | 0.161 | 0.119 | 0.126 | 0.136 | 0.122 | 0.134 | 0.162 | 0.279 | 0.228
12 | serum of mouse 13, protocol 2, mock immunization (PBS) (antibody) | 0.133 | 0.121 | 0.161 | 0.143 | 0.126 | 0.123 | 0.338 | 0.169 | 0.172 | 0.238 | 0.13 | 0.126 | 0.151 | 0.142 | 0.113 | 0.177 | 0.474 | 0.288
13 | serum of mouse 28, protocol 2, mock immunization (PBS) (antibody) | 0.119 | 0.143 | 0.204 | 0.133 | 0.167 | 0.107 | 0.354 | 0.122 | 0.117 | 0.141 | 0.128 | 0.128 | 0.146 | 0.114 | 0.123 | 0.179 | 0.165 | 0.261
14 | serum of mouse 12, protocol 2, mock immunization (PBS) (antibody) | 0.146 | 0.114 | 0.148 | 0.17 | 0.127 | 0.125 | 0.246 | 0.16 | 0.17 | 0.208 | 0.117 | 0.114 | 0.215 | 0.15 | 0.12 | 0.302 | 0.516 | 0.442
